Assay results reported in patent US20070048219A1.

Biological target: IL-8 receptors on human neutrophils
Assay: unlabeled IL-8 displaces 125I-IL-8 from IL-8 receptors on human neutrophils; value in the legend box without a column head, IC50

IC50: 78 pM
Substance: recombinant human IL-8, (ser-IL-8)72 (from UniProt P10145 28-99) (ligand)
